Reference: publication PMC5737501
Read-outs that look alike come from different tables or passages of the source.

Experiments:
Test in all cases: single-molecule TIRF colocalisation imaging
[1] = target: H3K9me3 chromatin fiber, 12 × 601 array with 177 bp nucleosome repeat length (a177) (human) (UniProt P62805)
[2] = target: H3K9me3 and H4KS16ac chromatin fiber, 12 × 601 array with 177 bp NRL (a177) (human) (UniProt P62805)
[3] = target: H3K9me3 and H4KS16ac chromatin fiber, 12 × 601 array with 197 bp NRL (a197) (human) (UniProt P62805)
[4] = target: H3K9me3 chromatin fiber, 12 × 601 array with 177 bp nucleosome repeat length (a177) (human) (UniProt P62805); remark: listed apart in the source
[5] = target: H3K9me3 chromatin fiber, 12 × 601 array with 197 bp nucleosome repeat length (a197) (human) (UniProt P62805)

Chain of HP1α, labeled with Atto532 at its C-terminus (P45973 whole entry): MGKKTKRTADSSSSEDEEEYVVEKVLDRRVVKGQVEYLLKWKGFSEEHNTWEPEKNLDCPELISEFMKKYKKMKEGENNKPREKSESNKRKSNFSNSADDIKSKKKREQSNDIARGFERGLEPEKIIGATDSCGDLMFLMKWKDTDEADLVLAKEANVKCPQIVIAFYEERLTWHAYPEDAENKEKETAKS
Chain of Phosphorylated HP1α (pHP1α), Atto532-labeled, phosphorylated with casein kinase 2 (P45973 whole entry): as above
Chain of HP1β, labeled with Atto532 at its C-terminus (P83916 whole entry): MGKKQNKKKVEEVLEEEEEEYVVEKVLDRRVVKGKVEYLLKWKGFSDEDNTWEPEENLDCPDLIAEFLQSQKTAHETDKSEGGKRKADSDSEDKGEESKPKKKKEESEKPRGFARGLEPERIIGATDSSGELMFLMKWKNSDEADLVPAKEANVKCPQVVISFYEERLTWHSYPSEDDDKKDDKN
Chain of HP1γ, labeled with Atto532 at its C-terminus (Q13185 whole entry): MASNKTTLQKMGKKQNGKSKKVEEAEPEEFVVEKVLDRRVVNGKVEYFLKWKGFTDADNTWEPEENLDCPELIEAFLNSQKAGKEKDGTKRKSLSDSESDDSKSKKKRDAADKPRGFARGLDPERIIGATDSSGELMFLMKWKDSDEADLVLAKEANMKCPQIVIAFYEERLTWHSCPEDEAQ

Substance | kon [1] [M⁻¹ s⁻¹] | tau off,1 (residence time, fast phase) [1] [s] | tau off,2 (residence time, slow phase) [1] [s] | kon [2] [M⁻¹ s⁻¹] | tau off,1 (residence time, fast phase) [2] [s] | tau off,2 (residence time, slow phase) [2] [s] | kon [3] [M⁻¹ s⁻¹] | tau off,1 (residence time, fast phase) [3] [s] | tau off,2 (residence time, slow phase) [3] [s] | kon [4] [M⁻¹ s⁻¹] | tau off,1 (residence time, fast phase) [4] [s] | tau off,2 (residence time, slow phase) [4] [s] | kon [5] [M⁻¹ s⁻¹] | tau off,1 (residence time, fast phase) [5] [s] | tau off,2 (residence time, slow phase) [5] [s]
HP1α, labeled with Atto532 at its C-terminus (from UniProt P45973 1-191) (natural protein) | 360000 | 0.14 | 2.97 | 2.76e+06 | 0.19 | 1.92 | 2.25e+06 | 0.16 | 2 | 1.1e+06 | 0.19 | 3.32 | 2.51e+06 | 0.24 | 2.49
HP1β, labeled with Atto532 at its C-terminus (from UniProt P83916 1-185) (natural protein) | – | – | – | – | – | – | – | – | – | 670000 | 0.19 | 3.6 | – | – | –
Phosphorylated HP1α (pHP1α), Atto532-labeled, phosphorylated with casein kinase 2 (from UniProt P45973 1-191) (natural protein) | – | – | – | – | – | – | – | – | – | 1.73e+06 | 0.26 | 5.6 | – | – | –
HP1γ, labeled with Atto532 at its C-terminus (from UniProt Q13185 1-183) (natural protein) | – | – | – | – | – | – | – | – | – | 890000 | 0.17 | 2.64 | – | – | –
